# Laboratory results: publication PMC8913847
# T1: IRF-3, endogenous in SeV-infected 293T cells (phosphorylated) (human (endogenous in 293T)), Q14653
# T1 chain: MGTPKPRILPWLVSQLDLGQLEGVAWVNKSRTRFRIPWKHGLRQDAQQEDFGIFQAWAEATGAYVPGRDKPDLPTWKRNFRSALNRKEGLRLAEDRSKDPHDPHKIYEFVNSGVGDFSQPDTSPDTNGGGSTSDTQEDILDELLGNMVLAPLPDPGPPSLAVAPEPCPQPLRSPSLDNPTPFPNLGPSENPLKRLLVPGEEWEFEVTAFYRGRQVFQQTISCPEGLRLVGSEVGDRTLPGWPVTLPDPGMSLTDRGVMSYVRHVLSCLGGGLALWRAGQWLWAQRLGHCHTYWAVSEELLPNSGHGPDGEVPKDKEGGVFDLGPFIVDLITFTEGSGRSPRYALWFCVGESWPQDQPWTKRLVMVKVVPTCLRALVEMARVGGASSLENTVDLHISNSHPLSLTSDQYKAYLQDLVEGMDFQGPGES
# B1: IRF-3, endogenous in SeV-infected 293T cells (phosphorylated), Q14653 1-427 (natural protein)
# chain: T1 chain
# modifications: here or on the partner: phosphorylation detected with phospho-specific antibody (S396); mobility retardation suggesting phosphorylation at multiple sites; phosphorylation detected with phospho-specific antibody (S396); mobility retardation suggesting phosphorylation at multiple sites
# Biological target: T1, IRF-3, endogenous in SeV-infected 293T …
# Assay: native gel or EMSA; native PAGE (7.5% gel, 0.2% sodium deoxycholate in the upper chamber buffer) of total lysates of 293T and 293T DDX3KO cells infected with SeV for the indicated times; immunoblot for IRF-3
# Details: remark: other sources report otherwise
binder,measurement,value
B1,stoichiometry N,2
